Assay results as given in paper PMC4703518.

T1: Unkempt ZnF1-3 (mouse, UniProt Q8BL48 31-174)
T1 sequence: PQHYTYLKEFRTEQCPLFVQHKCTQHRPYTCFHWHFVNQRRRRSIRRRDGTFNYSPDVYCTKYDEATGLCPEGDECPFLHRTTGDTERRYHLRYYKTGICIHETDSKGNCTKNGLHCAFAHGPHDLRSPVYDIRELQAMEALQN

T2: Unkempt ZnF4-6 (mouse, UniProt Q8BL48 204-335)
T2 sequence: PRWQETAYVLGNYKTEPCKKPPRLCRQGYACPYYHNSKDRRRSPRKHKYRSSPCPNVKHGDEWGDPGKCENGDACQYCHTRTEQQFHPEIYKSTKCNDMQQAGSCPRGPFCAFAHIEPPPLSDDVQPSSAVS

T3: Unkempt ZnF1-6 WT (mouse, UniProt Q8BL48 31-335)
T3 sequence: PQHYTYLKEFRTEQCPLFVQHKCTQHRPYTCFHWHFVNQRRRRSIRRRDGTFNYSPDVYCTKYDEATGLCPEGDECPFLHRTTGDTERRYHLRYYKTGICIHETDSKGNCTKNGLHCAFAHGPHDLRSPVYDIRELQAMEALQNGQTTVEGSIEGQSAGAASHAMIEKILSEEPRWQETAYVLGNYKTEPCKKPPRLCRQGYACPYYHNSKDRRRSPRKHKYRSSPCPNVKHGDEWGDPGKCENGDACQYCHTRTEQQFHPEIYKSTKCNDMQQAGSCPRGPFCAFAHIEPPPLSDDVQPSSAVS


Experiments:
Unkempt ZnF1-3 = biological target: T1, Unkempt ZnF1-3; assay: ITC
Unkempt ZnF4-6 = biological target: T2, Unkempt ZnF4-6; assay: ITC
Unkempt ZnF1-6 WT = biological target: T3, Unkempt ZnF1-6 WT; assay: EMSA

Binder	binding result (Unkempt ZnF1-3)	binding result (Unkempt ZnF4-6)	binding result (Unkempt ZnF1-6 WT)
ACUCCCAAUUAUUAAUGA (ssRNA) [HSPA8 URE 18-mer UAG-mutated]	binds		
ACUUAGAAUUAUUAAUGA (ssRNA) [HSPA8 URE 18-mer WT]		binds	binds
